{
  "source": "paper doi:10.1101/2023.06.19.545293",
  "about": "(2023)",
  "binders": {"B1": {"name": "SAP05 (mature, Ala33-Lys135) of Aster Yellows phytoplasma strain Witches Broom (natural protein)", "chain": "APNEEFVGDMRIVNVNLSNIDILKKHETFKKYFDFTLTGPRYNGNIAEFAMIWKIKNPPLNLLGVFFDDGTRDDEDDKYILEELKQIGNGAKNMYIFWQYEQK"}},
  "key": {"[1]": {"target": "T1, ZnF domain of A. thaliana SPL5 (Ser60-Leu127) (A. thaliana, UniProt Q9S758 60-127)", "T1 chain": "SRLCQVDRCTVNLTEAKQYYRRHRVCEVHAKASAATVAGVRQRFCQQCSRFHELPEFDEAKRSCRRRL", "assay": "ITC; 25 °C, repeat 1"}, "[2]": {"target": "T1, ZnF domain of A. thaliana SPL5 …", "assay": "ITC; 25 °C, repeat 2"}},
  "data": [
    {"binder": "B1", "values": [
      {"measurement": "Kd", "setting": "[1]", "value": 510, "unit": "nM"},
      {"measurement": "Kd", "setting": "[2]", "value": 388, "unit": "nM"}
    ]}
  ]
}
